# Reference: patent US5824529
# Legend:
# [1] = system: PshAI restriction endonuclease (recombinant, pPshAIR1, NEB#984) (Plesiomonas shigelloides); assay: cleavage_in_vitro; conditions: crude extract, NEBuffer 2, 30 C, 30 min
# [2] = system: PshAI restriction endonuclease (native) (Plesiomonas shigelloides); assay: cleavage_in_vitro; conditions: total activity in Mono Q peak, assayed on lambda DNA
substance,measurement,setting,value
lambda DNA,activity (units/g cells),[1],1e+07
same,activity,[2],250000 units
